Assay results as given in the DeepSol protein solubility set.

Assay: soluble on expression in E. coli; label from the status in PepcDB or PDB records
With “MGQDHIRYDILAQDALRGVIRKVLGEVAATGRLPGDHHFFITFLTGAPGVRISQHLKSKYAEQMTIVIQHQFWDMKVTETGFEIGLSFSDTPEKLVIPYNAIRGFYDPSVNFELEFDVPLAKEEEMEEAEITAYPVSHEAKPASETPKSGEEKKEGSVVSLDAFRKKQLEHHHHHH” the “soluble on expression in E. coli” value was “soluble”.
In the case of “MGQKRMNKSNKLVIINRAIPGGGKTSLIKQIEELAKSLGHSISVHSTDEYFIQTDEEGIRHYVVDKKKLNEYHQNNQEAFKQALENRIDIVVCDNTNFESWQSKPYTDMAREFGYKILLIDFKNRHLETPMDYGWDVAQCIKKPRGIAKHYDYDFYLERVLVEPQDYEKQNRELSLKALEFLKYNFDFDVIFYSFGEQLMPILTRMLVSVSKSHRKRLENYGKDIKTLEHHHHHHLEHHHHHHLEHHHHHHLEHHHHHHLEHHHHHHLEHHHHHHLEHHHHHH”, the “soluble on expression in E. coli” value is reported as “not soluble”.
In the case of “MGREFIPLFEDWAATYDQTVQGLDIQYKEAFRGYDHILDAIVRKSGTHVLEFGPGTGNLTAKLLDAGKTVFGIEPSPAMRKLASDKLSGRTEIVDGDFLTFPEPPFQADTIVSSYAFHHLTDEEKRAAIKQYGKYLHLHDKIVFADTVFENAQAYQQAIDKARSQGFYQLANDLETEHYPTLDALKEMFTAEGFAVRFTQQNDFVWIMEAIKRLEHHHHHH”, the “soluble on expression in E. coli” value is reported as “not soluble”.
For “MGRRRSHERRDLPPNLYIRNNGYYCYRDPRTGKEFGLGRDRRIAITEAIQANIELFSGHKHKPLTARINSDNSVTLHSWLDRYEKILASRGIKQKTLINYMSKIKAIRRGLPDAPLEDITTKEIAAMLNGYIDEGKAASAKLIRSTLSDAFREAIAEGHITTNHVAATRAAKSEVRRSRLTADEYLKIYQAAESSPCWLRLAMELAVVTGQRVGDLCEMKWSDIVDGYLYVEQSKTGVKIAIPTALHIDALGISMKETLDKCKEILGGETIIASTRREPLSSGTVSRYFMRARKASGLSFEGDPPTFHELRSLSARLYEKQISDKFAQHLLGHKSDTMASQFRDDRGREWDKIEIK”, the “soluble on expression in E. coli” value was “soluble”.
In the case of “MGRVTLRITGTQLLCQDEHPSLLAALESHNVEVEYQCREGYCGSCRTRLVAGQVDWITEPLAFIQPGEILPCCCRAKGDIEIEM”, the “soluble on expression in E. coli” value is reported as “not soluble”.
In the case of “MGRYIGPVCRLCRREGVKLYLKGERCYSPKCAMERRPYPPGQHGQKRARRPSDYAVRLREKQKLRRIYGISERQFRNLFEEASKKKGVTGSVFLGLLESRLDNVVYRLGFAVSRRQARQLVRHGHITVNGRRVDLPSYRVRPGDEIAVAEKSRNLELIRQNLEAMKGRKVGPWLSLDVEGMKGKFLRLPDREDLALPVNEQLVIEFYSR”, the “soluble on expression in E. coli” value is reported as “soluble”.
In the case of “MGSDFDHLVNSLSDVELLNLFIQSCSQTTINGVPVPRFPPEEIQKQFVGASYEHALYEAYLFYRHIKEYAQNLGVPLNKESKVLDFGCGWGRIIRFLFKDASDQNLLGIDVDPAMITLCNETLGRGIYKTASPHPPVEFISDNSLDIIFAYSVFSHLSEATAENWVKEFSRVLRPGGIFIATTQARYFLDFCQQFQEHPELIQTGWHKTLSQAFPDIHRAISDYENGKFVHSPTGAGDVRNSSFYGETVIPRTYIENHYEKYLKLQDFFDDVNRLPQALFVLQKILEHHHHHH”, the “soluble on expression in E. coli” value is reported as “soluble”.
With “MGSDKIHHHHHHAACQDEDHTVPTLPSGNDPEINDPVVEFYDWEKNRTELLTSTDMVLLYGGGHHRTPYTWDKERVSSYIRYVDTDNQSHWLFDSFLFLEIMDTGTGGANKMFAKGYNLESANQADWTKLIDYYFQSETGIGALDASVKEASAILGTPRQKRQIVISIPEPIVYQHPEQASSSTKYWGKIDNQTLDFSNSADRIKACKWYIDQVRAKFNEKNYQHVELAGFYWLAEKATDTRDILNAVAIYLNKLKYSFNWIPYYGADGYNQWKSLGFNYAYFQPNYFFNESVPDSRLEDACQKALTYDMHMELEFDDNALNSRGKAYRLKNYMSAFKKHGIWEKKRLAYYQGSASLLTLKKSGNAADTQLYHEFCNFVISRPIRSSH” the “soluble on expression in E. coli” value was “not soluble”.
With “MGSDKIHHHHHHAADHVKGDGKLTSKKISVADYNEIKVDGVIDFNYEQSDDPSTVEVTVDQNLHPYVNIEVKDRVLTIAFKGAKVDHFTKFIVKTNSKWLAAAKVSGNANFMVNSPLTGDETVIKANANSLVQLKETVTVGKLDLNVSGSANMVVNHLEADKIECDIDGSGSITIKKGNAKEGDYSIVSSGDIHAFGLAVPQLSCKVTGNGLAEVHATDNLKANVVGKGNIRYKGPTAVQQRIIGKGTVEEVKE” the “soluble on expression in E. coli” value was “not soluble”.
For “MGSDKIHHHHHHAASEAEYGKVSKAWTLHADGSQEYRSSMELTLFTHTAMNSTYGESFIVYNPDFQTLKIHSSYTRQKDGTIVKTPDNAFVEVLPRFAADAPAYNQLKEMVVVHTGLELGATIYLDYSIITKPGYYPALDINERLQETSPVKECKVSISVPEGTPLACGLYGSPVKAVEESHDGIKEVHWTLRNIPASSREAFQPKNREASPHLVASTYPSGKAALATLDKRLKESQGYESKTFAQFLTDKSGNEQEKVNIIRDHILNNLSTCPIPMAMTGYTVRDIDTVLRSAYGTPLEIAQLLNVMLNAAGIPSEVLAVYPGHLDTDACGLAAIQTLAVKATVDGKDQYLSASPLTNRGGLDKVVSLSGTSIEIETTPIQIKESRSVAISADQAKDGFAICVLPAISAGIDSWGMSALNSKRSNLFELPSLIREEVTYTVTPAEGMKLQTSTQEQVISKPFGKVTRTITPRGNTIEVVRTIELNKQQFTPAEYSDVRSLIHEWTNPDNRVLLFSL”, the “soluble on expression in E. coli” value was “not soluble”.
In the case of “MGSDKIHHHHHHADFVSDYIWRGAYQNSGFSVQPTLGLSYGNLSLSAWGSQSLTKTDGAQEFDINLSYTIGGLGITVTDYWWNGITMPYGDYKHDHHFEGTLAYNFGENFPLTLSWSTMFAGGDDNKDGDRAYSTYINASYNIACPAEITLTPSVGFTPWKGMYDADGAAFTDIALKASKNINITDHFSLPLFVQAIVSPSFDKTYLIAGLSIGF”, the “soluble on expression in E. coli” value is reported as “not soluble”.
With “MGSDKIHHHHHHADSVKIGFITDMSGLYADIDGQGGLEAIKMAVADFGGKVNGKPIEVVYADHQNKADIAASKAREWMDRGGLDLLVGGTNSATALSMNQVAAEKKKVYINIGAGADTLTNEQCTPYTVHYAYDTMALAKGTGSAVVKQGGKTWFFLTADYAFGKALEKNTADVVKANGGKVLGEVRHPLSASDFSSFLLQAQSSKAQILGLANAGGDTVNAIKAAKEFGITKTMKLAALLMFINDVHALGLETTQGLVLTDSWYWNRDQASRQWAQRYFAKMKKMPSSLQAADYSSVTTYLKAVQAAGSTDSDKVMAQLKKMKIDDFYAKGYIRTDGSMIHDMYLMEVKKPSESKEPWDYYKVVATIPGEQAFTTKQETRCALWK” the “soluble on expression in E. coli” value was “not soluble”.
In the case of “MGSDKIHHHHHHAEDMVKPIENDKDAPGTVQDVKTESLPGAVKFTYTLPSDPDLLYVLAKYTNKTGKVMEFRSSFYTNSVTVEGFGDTDTYKVELYTVDRSENRSQPQIVEVVPLTPPILSCYESLSMVSDFGGMTFEMDNKFKSDLAIYVCTPDELGDMVLAETFYSAREEIVYSVRGYDAVPRRFGIFLQDKYGNETDTLFTELTPIYERELDKTKFREMYLQNDSRVDSYDGKMEYVWNGRISKDGDSGGVGLHTGTGTKDGPAVFTFDLGVLAKLSRFALWAIQDEKHFYNDMSPRRYEVWGCATEPNPDGSWDQWVKLLDMENVKPSGSPIGILTEDDIEAAKIGDQANVPLDMPRVRYIRIKCLKNWSNNYNICFTELTFWGNDNEE”, the “soluble on expression in E. coli” value is reported as “not soluble”.
In the case of “MGSDKIHHHHHHAGTYNPKNTTSFNINKSNYVAKGRIYKLRLPAAGRVVTNSDITLKNSMEWTCIPYGKDKNTYYLRKGTYYLTSSKNTNVKTAYTRLTKIRKNLETYVETKKNNDNSSLRAREIKVGQKIKAMGAMYDYDGIDYYRFTIDSPQMVTMKMTNAPIYQLGNGNIFSKMGITMFSDNNPVGDNTILYPETFSSKGNKSASQSWYLAKGTYYFSVSTRGLYNFQLTAVPDTRMVPADTEIESLKDTKDGVVASLRDALHAKTYELAWREKGSKFAPFSSSSNTTKVSTASATRYLKVNGHEIPVQIGRKLVNGQTYEFVARGVSNPNYIRYGNPETDNYFGAWTKIVEHTYYAPANGVPGAVELNAQADNTYHNIHVSWTKIDTAQSYRVAYRQKGTNKWYYEVTDQDSNAVTGITRNKTYELKLQALNGKEEGPWSTVKEVFLK”, the “soluble on expression in E. coli” value is reported as “not soluble”.
In the case of “MGSDKIHHHHHHALLWFSRFQRTGKLCVSLGWLLLTLLSLQPVADSLLKPIEDTYPTWRGEQPVNYVVVLGGGYTWNPEWAPSSNLINNSLPRLTEGIRLWQANPGSKMIFTGAAAKTNPVSTAEAGARVAESLGVPRSDIIVLDRPKDTEEEALAVKRAIGDAPFLLVTSASHLPRAMIFFRHAGLDPLPAPANQLAVTSPLNPWERAIPSPVWLMHSDRVGYETLGRVWQWLKGSSGEPGQE”, the “soluble on expression in E. coli” value is reported as “not soluble”.
